Data taken from patent US20250042994A1 (HAINAN SIMCERE ZAIMING PHARMACEUTICAL, published 2025).
Numbering of substitutions follows the chain as printed.

T1: human CD19 exon1-3-His tag protein (human, UniProt P15391 20-186, limits assumed)
T1 construct: membrane-distal part of the extracellular region, made in HEK293E cells; not shown: His tag
T1 sequence (looked up): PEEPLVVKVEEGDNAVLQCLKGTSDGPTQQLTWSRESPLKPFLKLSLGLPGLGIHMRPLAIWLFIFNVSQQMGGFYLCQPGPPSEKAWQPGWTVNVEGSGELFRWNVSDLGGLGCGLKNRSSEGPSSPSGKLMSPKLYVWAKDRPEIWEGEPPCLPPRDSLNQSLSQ

T2: Human CD19-his protein (human, UniProt P15391 20-291)
T2 construct: bought protein; also called recombinant human CD19-His; CD19 full-length protein; not shown: His tag
T2 sequence (looked up): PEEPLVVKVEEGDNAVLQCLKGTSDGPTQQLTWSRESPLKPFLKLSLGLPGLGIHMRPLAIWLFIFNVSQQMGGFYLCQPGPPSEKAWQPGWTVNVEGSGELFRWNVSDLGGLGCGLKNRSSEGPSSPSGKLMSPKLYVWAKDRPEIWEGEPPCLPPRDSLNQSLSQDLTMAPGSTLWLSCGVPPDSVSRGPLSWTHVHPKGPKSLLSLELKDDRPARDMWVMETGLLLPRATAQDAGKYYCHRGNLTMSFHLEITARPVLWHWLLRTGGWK

T3: human CD19 on CHO-K1-human CD19 cells (human, UniProt P15391 20-556)
T3 construct: whole, on cells; also called CHO-K1-human CD19-2C8
T3 sequence (looked up): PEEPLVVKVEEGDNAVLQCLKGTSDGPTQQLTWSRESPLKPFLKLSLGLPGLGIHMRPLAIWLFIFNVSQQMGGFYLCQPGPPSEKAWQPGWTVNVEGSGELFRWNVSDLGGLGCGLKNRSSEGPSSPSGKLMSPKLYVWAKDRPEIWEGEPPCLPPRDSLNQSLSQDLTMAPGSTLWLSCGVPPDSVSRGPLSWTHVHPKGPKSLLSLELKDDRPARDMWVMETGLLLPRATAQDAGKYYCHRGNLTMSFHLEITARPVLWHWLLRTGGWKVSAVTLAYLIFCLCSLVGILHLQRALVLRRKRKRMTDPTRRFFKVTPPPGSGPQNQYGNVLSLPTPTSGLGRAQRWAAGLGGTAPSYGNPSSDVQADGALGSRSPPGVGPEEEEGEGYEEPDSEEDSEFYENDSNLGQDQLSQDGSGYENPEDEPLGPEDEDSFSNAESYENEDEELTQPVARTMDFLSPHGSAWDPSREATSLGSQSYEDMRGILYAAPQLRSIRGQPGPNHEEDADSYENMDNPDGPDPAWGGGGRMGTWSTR

T4: human CD19 on Raji cells (human, UniProt P15391 20-556)
T4 construct: whole, on cells
T4 sequence (looked up): T3 sequence (looked up)

B1: F3.121.4-L2H1 (antibody, mouse IgG1, kappa, V domains shown)
VH: EVQLVQSGAEVKKPGASVKVSCKASGYTFTNYWMHWVRQAPGQRLEWMGEIDPSDNYANYNQEFQGRVTITVDKSASTAYMELSSLRSEDTAVYYCARHDGYFGALDYWGQGTTVTVSS
VL: EIVLTQSPDFQSVTPKEKVTITCSASSSISSNYLHWYQQKPDQSPKLLIKRTSNLASGVPSRFSGSGSGTDFTLTINSLEAEDAATYYCQQASSIPRMFTFGQGTKLEIKR
notes: humanized antibody of F3.121.4, VL2+VH1, murine IgG1 constant regions
B2: F3.121.4-L2H3 (antibody, mouse IgG1, kappa)
heavy: EVQLVQSGAEVKKPGASVKVSCKASGYTFTNYWMHWVRQRPGQGLEWMGEIDPSDNYANYNQEFQGRVTITVDKSASTAYMELSSLRSEDTAVYYCARHDGYFGALDYWGQGTTVTVSSAKTTPPSVYPLAPGSAAQTNSMVTLGCLVKGYFPEPVTVTWNSGSLSSGVHTFPAVLQSDLYTLSSSVTVPSSTWPSETVTCNVAHPASSTKVDKKIVPRDCGCKPCICTVPEVSSVFIFPPKPKDVLTITLTPKVTCVVVDISKDDPEVQFSWFVDDVEVHTAQTQPREEQFNSTFRSVSELPIMHQDWLNGKEFKCRVNSAAFPAPIEKTISKTKGRPKAPQVYTIPPPKEQMAKDKVSLTCMITDFFPEDITVEWQWNGQPAENYKNTQPIMDTDGSYFVYSKLNVQKSNWEAGNTFTCSVLHEGLHNHHTEKSLSHSPGK
light: EIVLTQSPDFQSVTPKEKVTITCSASSSISSNYLHWYQQKPDQSPKLLIKRTSNLASGVPSRFSGSGSGTDFTLTINSLEAEDAATYYCQQASSIPRMFTFGQGTKLEIKRADAAPTVSIFPPSSEQLTSGGASVVCFLNNFYPKDINVKWKIDGSERQNGVLNSWTDQDSKDSTYSMSSTLTLTKDEYERHNSYTCEATHKTSTSPIVKSFNRNEC
notes: humanized antibody of F3.121.4, VL2+VH3, murine IgG1 constant regions
B3: F3.121.4-L2H4 (antibody, mouse IgG1, kappa)
heavy: B2 heavy with V5Q
light: B2 light
notes: humanized antibody of F3.121.4, VL2+VH4, murine IgG1 constant regions
B4: F3.121.4-L3H1 (antibody, mouse IgG1, kappa, V domains shown)
VH: B1 VH
VL: B1 VL with L47F, K50Y
notes: humanized antibody of F3.121.4, VL3+VH1, murine IgG1 constant regions
B5: F3.121.4-L3H2 (antibody, mouse IgG1, kappa, V domains shown)
VH: B1 VH with R44G
VL: B1 VL with L47F, K50Y
notes: humanized antibody of F3.121.4, VL3+VH2, murine IgG1 constant regions

Assays:
[1] = molecular target: T1, human CD19 exon1-3-His tag protein; test: ELISA, coated human CD19 exon 1-3-His
[2] = molecular target: T2, Human CD19-his protein; test: ELISA on coated human CD19-His
[3] = molecular target: T2, Human CD19-his protein; test: ELISA, coated human CD19-His
Method: Human CD19-his protein (purchased from ACROBiosystems, catalog number: CD9-H52H2) was diluted with PBS to a final concentration of 4 μg/mL, and then added to a 96-well ELISA plate at 100 μl/well. The plate was sealed with a plastic film and incubated overnight at 4° C., the plate was washed 2 times with PBS the next day, and then a blocking solution [PBS+2% (w/w) BSA] was added for blocking at room temperature for 2 h. The blocking solution was poured off, and 100 nM gradiently diluted CD19 chimeric antibody or control antibody was added at 50 μl/well. After incubation at 37° C. for 2 h, the plate was washed 3 times with PBS. […] TMB substrate was added at 50 μl/well, and incubated at room temperature for 10 min, and then a stop solution (1.0 N HCl) was added at 50 μl/well. The OD450 nm values were read by an ELISA microplate reader (Multimode Plate Reader, EnSight, purchased from Perkin Elmer).

[4] = molecular target: T2, Human CD19-his protein; test: SPR Biacore, method of example 7.1, human CD19-His
Method: A sample buffer and a running buffer were HBS-EP+ (10 mM HEPES, 150 mM NaCl, 3 mM EDTA and 0.05% surfactant P20) (GE Healthcare; BR-1006-69). The flow-through cell was set to 25° C. The sample block was set to 16° C. Both were pretreated with the running buffer. In each cycle, an antibody to be detected was first captured with a Protein A chip, and then a single concentration of CD19 antigen protein was injected. The binding and dissociation processes of the antibody and the antigen protein were recorded, and finally Glycine pH 1.5 (GE Healthcare; BR-1003-54) was used to complete chip regeneration. The binding was measured by injecting different concentrations of recombinant human CD19-His proteins in a solution for 240 s with a flow rate of 30 μl/min. The concentration started from 200 nM (see the detailed results for the actual concentration in the test) and was diluted at 1:1, making a total of 5 concentrations. The dissociation phase was monitored for up to 600 s and was triggered by switching from sample solution to running buffer. The surface was regenerated by washing with a 10 mM glycine solution (pH 1.5) for 30 s at a flow rate of 30 μl/min. Bulk refractive index difference was corrected by subtracting the response obtained from the goat anti-human Fc surface. Blank injection was also subtracted (=double reference). For calculation of apparent KD and other kinetic parameters, Langmuir 1:1 model was used.
SPR (biacore) detection and data analysis were performed according to the method in example 7.1.

[5] = molecular target: T3, human CD19 on CHO-K1-human CD19 cells; test: FACS on CHO-K1-human CD19 cells
Method: (§1) After the digestion was terminated, the cells were washed 2 times with a PBS buffer; and for suspension cell Raji, the supernatant of the medium was discarded by directly centrifugation, and the cell pellet was washed 2 times with PBS. After counting the cells in the previous step, the cell pellet was resuspended with [PBS+2% (w/w) BSA] blocking solution to 2×10⁶ cells/ml, and added to a 96-well FACS reaction plate at 50 μl/well, and then the sample to be tested was added at 50 μl/well, and incubated on ice for 2 h. The obtained mixture was centrifuged and washed 3 times with a PBS buffer. […] The obtained mixture was centrifuged and washed 5 times with a PBS buffer, and FACS (FACS Canto™, purchased from BD Company) was used for detection and result analysis. Data analysis was performed by software (FlowJo) to obtain the mean fluorescence intensity (MFI) of the cells. And then software (GraphPad Prism8) was used for analysis, data fitting, and EC50 value calculation. […] The same method was used to detect the binding of the chimeric antibodies to endogenous CD19-negative cells, MoLT4 cells (purchased from ATCC, CRL-1582), and CHO-K1 cells.

[6] = molecular target: T4, human CD19 on Raji cells; test: FACS on Raji cells
Method: as §1

Binder	OD450 at 0.0001 nM [1] [OD450]	OD450 at 0.001 nM [1] [OD450]	OD450 at 0.01 nM [1] [OD450]	OD450 at 0.10 nM [1] [OD450]	OD450 at 1.00 nM [1] [OD450]	OD450 at 10 nM [1] [OD450]	OD450 at 100 nM [1] [OD450]	EC50 (read off the curve) [2] [pM]	OD450 at 0.0001 nM [3] [OD450]	OD450 at 0.001 nM [3] [OD450]	OD450 at 0.01 nM [3] [OD450]	OD450 at 0.10 nM [3] [OD450]	OD450 at 1.00 nM [3] [OD450]	OD450 at 10 nM [3] [OD450]	OD450 at 100 nM [3] [OD450]	Kd [4] [pM]	koff [4] [s⁻¹]	kon [4] [M⁻¹ s⁻¹]	EC50 [5] [pM]	Maximum mean fluorescence intensity [5] [MFI]	other results
B1	0.05	0.05	0.05	0.05	0.05	0.05	0.09	~50	0.1	0.13	0.38	1.52	2.42	2.45	2.57	1430	0.000186	130000	1080	53200	EC50 [6]: 380 pM; Maximum mean fluorescence intensity [6]: 29100 MFI
B2	0.05	0.05	0.05	0.05	0.05	0.05	0.08	~50	0.1	0.14	0.39	1.55	2.47	2.33	2.32	1380	0.000188	137000	1170	52200	EC50 [6]: 450 pM; Maximum mean fluorescence intensity [6]: 29600 MFI
B3	0.05	0.05	0.05	0.05	0.04	0.05	0.08	~50	0.1	0.14	0.39	1.53	2.36	2.27	2.34	1530	0.000186	122000	1130	52000	EC50 [6]: 370 pM; Maximum mean fluorescence intensity [6]: 29200 MFI
B4	0.05	0.05	0.05	0.05	0.05	0.05	0.09	~50	0.1	0.14	0.39	1.62	2.42	2.37	2.17	244	3.18e-05	130000	1130	53500	EC50 [6]: 380 pM; Maximum mean fluorescence intensity [6]: 32000 MFI
B5	0.05	0.05	0.05	0.05	0.05	0.05	0.12	~50	0.1	0.14	0.42	1.6	2.36	2.3	2.28	0.0498	5.65e-09	113000	1080	52100	EC50 [6]: 420 pM; Maximum mean fluorescence intensity [6]: 32200 MFI
